In paper PMC3787845:
Values belong to the molecule of their own block, whether it stands above or below them.

Assays:
[1] = molecular target: His6-ChpT (Caulobacter crescentus); experiment: SEC
[2] = molecular target: His6-ChpT-A41R (Caulobacter crescentus); experiment: SEC
[3] = molecular target: His6-ChpT-D47A (Caulobacter crescentus); experiment: SEC
[4] = molecular target: His6-ChpT-D60A (Caulobacter crescentus); experiment: SEC
[5] = molecular target: His6-ChpT-G45R (Caulobacter crescentus); experiment: SEC
[6] = molecular target: His6-ChpT-L48M (Caulobacter crescentus); experiment: SEC
[7] = molecular target: His6-ChpT-L64D (Caulobacter crescentus); experiment: SEC
[8] = molecular target: His6-ChpT-N63R (Caulobacter crescentus); experiment: SEC
[9] = molecular target: His6-ChpT-S40V (Caulobacter crescentus); experiment: SEC
[10] = molecular target: His6-ChpT-S44Y (Caulobacter crescentus); experiment: SEC
[11] = molecular target: His6-ChpT-A41R (Caulobacter crescentus); experiment: SPR

Molecule: His6-ChpT (natural protein)
stoichiometry N [1]: 2

Molecule: His6-ChpT-A41R (natural protein)
stoichiometry N [2]: 2

Molecule: His6-ChpT-D47A (natural protein)
stoichiometry N [3]: 2

Molecule: His6-ChpT-L48M (natural protein)
stoichiometry N [6]: 2

Molecule: His6-ChpT-L64D (natural protein)
stoichiometry N [7]: 2

B1: CckA receiver domain (CckA-RD, amino acids 571–691) (domain or fragment)
chain: GRILFVEDEDAVRSVAARLLRARGYEVLEAADGEEALIIAEENAGTIDLLISDVIMPGIDGPTLLKKARGYLGTAPVMFISGYAEAEFSDLLEGETGVTFLPKPIDIKTLAERVKQQLQAA
Kd [11]: 397 µM

The remaining lines, values ahead:

stoichiometry N [4]: 2
Molecule: His6-ChpT-D60A (natural protein)

stoichiometry N [5]: 2
Molecule: His6-ChpT-G45R (natural protein)

stoichiometry N [8]: 2
Molecule: His6-ChpT-N63R (natural protein)

stoichiometry N [9]: 2
Molecule: His6-ChpT-S40V (natural protein)

stoichiometry N [10]: 2
Molecule: His6-ChpT-S44Y (natural protein)
